Reference: US20100260765A1 (AstraZeneca / MedImmune, published 2010)
Positions count from the first letter of the chain named.

B1: 32F4 (antibody, V domains shown)
VH: QLQLQESGPGLVKPSGTLSLSCTVSGGSISSRSDYWGWIRQPPGKGLEWIGTIYYSGNTFYNPSLKSRVTISVDTSKKQFSLKLSSVTAADTAVYYCARQQLVLYYFDYWGQGTLVTVSS
VL: EIVLTQSPGTLSLSPGERATLSCRTSQSVSSSYLAWYQQKPGQAPRLLIYGASSRATGVPDRFSGSGSGTDFSLTISRLEPEDFAVYYCQQYGSSPPLTFGGGTKVEIK
notes: Fully human monoclonal antibody from a XenoMouse hybridoma (IgG2 or IgG4 strain), purified
B2: 33B1 (antibody, V domains shown)
VH: EVQLVESGGGLVKPGGSLRLSCAASGFTFSSYTMNWVRQAPGKGLEWVSFIDSRSSYIYYADSVKGRFTISRDNAKNSLYLQMNSLRAEDTAVYYCSKDDWFEELWGQGTLVTVSS
VL: DIQMTQSPSSLSASVGDRVTITCRASQGIRNDLGWYQQKPGKAPKRLIYATSSLQSGVPSRFSGSGSGTEFTLTISSLQPEDFATYYCLHHNSFPWTFGQGTKVEIK
notes: as for B1
B3: 24B3 (antibody, V domains shown)
VH: B2 VH with S31T, T33S, D52S, S53G
VL: B2 VL with N31S, H90Q, S93R, F94Y
notes: as for B1
B4: 33E1 (antibody, V domains shown)
VH: QVQLQESGPGLVKPSQTLSLTCTVSGGSISSGDHYWSWIRQHPGKGLEWIGHIYYSGSTDYNPSLKSRVTISVDTSKNHFSLKLNSVTAADTAVYYCARTNSSSWSDWYFDLWGRGTLVTVSS
VL: DIVMTQSPDSLAVSLGERATINCKSSQSILYSSNNKNYLAWYQRKPGQPPILLIHWASTRESGVPDRFSGSGSRTDFTLTISSLQAEDVAVYYCQQYFITPWTFGQGTKVEIK
notes: as for B1

The binders below were run against T1, human KDR (human, UniProt P35968 20-1356) (assay: cell-based or functional assay).
T1 sequence (P35968 20-1356): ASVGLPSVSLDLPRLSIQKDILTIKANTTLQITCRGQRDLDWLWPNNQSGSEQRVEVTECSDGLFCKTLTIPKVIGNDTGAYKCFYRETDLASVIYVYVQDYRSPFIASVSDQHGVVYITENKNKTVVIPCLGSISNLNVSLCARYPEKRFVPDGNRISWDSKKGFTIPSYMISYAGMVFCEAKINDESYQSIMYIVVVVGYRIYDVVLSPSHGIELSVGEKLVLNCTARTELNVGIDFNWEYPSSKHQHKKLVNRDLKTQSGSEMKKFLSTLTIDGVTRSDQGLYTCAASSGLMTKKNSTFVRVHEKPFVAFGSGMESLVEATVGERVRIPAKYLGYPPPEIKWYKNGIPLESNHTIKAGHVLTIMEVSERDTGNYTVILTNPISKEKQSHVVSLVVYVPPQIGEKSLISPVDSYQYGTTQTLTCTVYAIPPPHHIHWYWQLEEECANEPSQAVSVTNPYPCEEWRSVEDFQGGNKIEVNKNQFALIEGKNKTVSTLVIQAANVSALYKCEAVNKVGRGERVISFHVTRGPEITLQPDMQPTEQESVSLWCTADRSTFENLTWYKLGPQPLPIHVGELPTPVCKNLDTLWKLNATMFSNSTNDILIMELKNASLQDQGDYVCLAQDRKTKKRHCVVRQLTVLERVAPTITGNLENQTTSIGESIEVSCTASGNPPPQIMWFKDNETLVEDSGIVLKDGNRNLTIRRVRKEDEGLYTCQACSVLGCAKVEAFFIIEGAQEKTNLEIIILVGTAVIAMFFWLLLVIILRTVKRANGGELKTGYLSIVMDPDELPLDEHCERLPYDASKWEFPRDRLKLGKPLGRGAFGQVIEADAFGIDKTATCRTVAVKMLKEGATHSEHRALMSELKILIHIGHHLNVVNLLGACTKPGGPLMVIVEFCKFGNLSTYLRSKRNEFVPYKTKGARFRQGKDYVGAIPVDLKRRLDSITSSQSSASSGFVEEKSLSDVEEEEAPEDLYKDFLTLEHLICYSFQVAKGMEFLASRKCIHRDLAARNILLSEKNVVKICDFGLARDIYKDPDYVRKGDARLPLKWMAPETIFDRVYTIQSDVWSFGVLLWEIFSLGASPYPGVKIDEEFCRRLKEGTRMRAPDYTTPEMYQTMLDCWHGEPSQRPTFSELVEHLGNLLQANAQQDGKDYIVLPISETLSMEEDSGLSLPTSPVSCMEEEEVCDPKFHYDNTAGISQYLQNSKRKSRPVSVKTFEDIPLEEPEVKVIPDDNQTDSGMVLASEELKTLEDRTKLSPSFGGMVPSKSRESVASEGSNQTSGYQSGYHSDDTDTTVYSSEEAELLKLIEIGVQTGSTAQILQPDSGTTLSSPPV

Binder | KDR tyrosine phosphorylation in HUVEC, EC50 (nM), Average [nM] | KDR tyrosine phosphorylation in HUVEC, EC50 (nM), N = 1 [nM] | KDR tyrosine phosphorylation in HUVEC, EC50 (nM), N = 2 [nM] | KDR tyrosine phosphorylation in HUVEC, Maximum Inhibition at 100 nM (% Inhibition), Average [%] | KDR tyrosine phosphorylation in HUVEC, Maximum Inhibition at 100 nM (% Inhibition), N = 1 [%] | KDR tyrosine phosphorylation in HUVEC, Maximum Inhibition at 100 nM (% Inhibition), N = 2 [%]
B1 | 1.8 | 1.7 | 1.9 | 75 | 71 | 79
B2 | 1.1 | 1.2 | 1.1 | 86 | 86 | 86
B3 | 2.2 | 2.1 | 2.3 | 81 | 78 | 84
B4 | 5.5 | 5.8 | 5.1 | 74 | 73 | 75

Biological target: T1, human KDR
Assay: cell-based or functional assay
Remark: another data set of the same source

Binder | HUVEC survival, Maximum Inhibition at 50 nM (% Inhibition), Average [%] | HUVEC survival, Maximum Inhibition at 50 nM (% Inhibition), N = 1 [%] | HUVEC survival, Maximum Inhibition at 50 nM (% Inhibition), N = 2 [%]
B1 | 92 | 91 | 94
B2 | 57 | 55 | 59
B3 | 90 | 97 | 82
B4 | 103 | 107 | 99

Biological target: T1, human KDR
Assay: cell-based or functional assay
Remark: another data set of the same source

Binder | 6-keto Prostaglandin F1α release, EC50 (nM), Average [nM] | 6-keto Prostaglandin F1α release, EC50 (nM), N = 1 [nM] | 6-keto Prostaglandin F1α release, EC50 (nM), N = 2 [nM] | 6-keto Prostaglandin F1α release, Maximum Inhibition (% Inhibition), Average [%] | 6-keto Prostaglandin F1α release, Maximum Inhibition (% Inhibition), N = 1 (200 nM) [%] | 6-keto Prostaglandin F1α release, Maximum Inhibition (% Inhibition), N = 2 (333 nM) [%]
B1 | 4.5 | 4.4 | 4.6 | 48 | 42 | 54
B2 | 3840 | 17 | 7670 | 53 | 31 | 76
B3 | 12.1 | 8.1 | 16.2 | 54 | 37 | 72
B4 | 5.1 | 4.8 | 5.4 | 90 | 77 | 103

These binders were tested against T2, mouse KDR (Flk-1)/Fc (Cat. #443-KD/CF, R&D Systems, Inc.) (mouse, UniProt P35918 20-762) (assay: ELISA, Flk-1 coat 5 ug/mL, antibody 1 ug/mL).
T2 construct: Bought reagent; also called mouse VEGFR2; KDR mouse ortholog; not shown: Fc of the bought fusion protein
T2 sequence (P35918 20-762 limits assumed): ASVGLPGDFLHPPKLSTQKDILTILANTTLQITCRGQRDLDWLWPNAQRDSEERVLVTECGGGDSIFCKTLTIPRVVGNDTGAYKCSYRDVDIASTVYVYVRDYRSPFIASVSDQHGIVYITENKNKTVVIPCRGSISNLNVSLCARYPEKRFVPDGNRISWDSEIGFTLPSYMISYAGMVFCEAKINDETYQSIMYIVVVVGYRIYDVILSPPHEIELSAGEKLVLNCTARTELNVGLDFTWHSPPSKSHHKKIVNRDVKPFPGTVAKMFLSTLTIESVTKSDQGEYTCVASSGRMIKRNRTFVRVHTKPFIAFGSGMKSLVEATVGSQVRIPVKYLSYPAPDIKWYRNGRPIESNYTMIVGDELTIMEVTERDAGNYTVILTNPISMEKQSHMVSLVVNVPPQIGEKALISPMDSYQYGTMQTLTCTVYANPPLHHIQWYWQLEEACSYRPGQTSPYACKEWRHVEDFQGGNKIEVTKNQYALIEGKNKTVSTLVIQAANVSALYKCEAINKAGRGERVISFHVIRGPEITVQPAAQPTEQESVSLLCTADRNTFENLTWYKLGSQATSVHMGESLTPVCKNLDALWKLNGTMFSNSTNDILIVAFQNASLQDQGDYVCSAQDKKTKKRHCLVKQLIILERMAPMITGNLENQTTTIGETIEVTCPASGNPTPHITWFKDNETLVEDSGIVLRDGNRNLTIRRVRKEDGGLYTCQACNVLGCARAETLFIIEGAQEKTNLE
Procedure: (§1) The cross-reactivity of purified antibodies was tested against KDR mouse ortholog KDR mouse ortholog (mouse VEGFR2, or Flk-1) and human VEGFR1 (Flt-1). The ability of the antibodies to bind soluble KDR Ig4-7 domain and to the entire KDR extracellular domain (ECD) was also measured.
(§2) Cross-reactivity experiments were carried out and measured using an ELISA based assay as described in Example 6. […] Antibody controls included IgG1 and IgG4 (Sigma-Aldrich, Cat. #15154 and #14639, respectively).

Binder | ELISA reading
B1 | 2.62
B2 | 3.12
B3 | 3.39
B4 | 2.17

These binders were tested against T2, mouse KDR (Flk-1)/Fc (Cat. #443-KD/CF, …) (assay: ELISA, Flk-1 coat 5 ug/mL, antibody 0.1 ug/mL).
Procedure: as §1, §2

Binder | ELISA reading
B1 | 2
B2 | 2.1
B3 | 2.75
B4 | 1.47

Each binder was assayed against T3, whole KDR-ECD (Cat. # 676490, Calbiochem) (human, UniProt P35968 20-764) (assay: ELISA, KDR-ECD coat 5 ug/mL, antibody 1 ug/mL).
T3 construct: extracellular domain; Bought soluble protein; also called soluble KDR; VEGF Receptor 2 D1-7
T3 sequence (P35968 20-764): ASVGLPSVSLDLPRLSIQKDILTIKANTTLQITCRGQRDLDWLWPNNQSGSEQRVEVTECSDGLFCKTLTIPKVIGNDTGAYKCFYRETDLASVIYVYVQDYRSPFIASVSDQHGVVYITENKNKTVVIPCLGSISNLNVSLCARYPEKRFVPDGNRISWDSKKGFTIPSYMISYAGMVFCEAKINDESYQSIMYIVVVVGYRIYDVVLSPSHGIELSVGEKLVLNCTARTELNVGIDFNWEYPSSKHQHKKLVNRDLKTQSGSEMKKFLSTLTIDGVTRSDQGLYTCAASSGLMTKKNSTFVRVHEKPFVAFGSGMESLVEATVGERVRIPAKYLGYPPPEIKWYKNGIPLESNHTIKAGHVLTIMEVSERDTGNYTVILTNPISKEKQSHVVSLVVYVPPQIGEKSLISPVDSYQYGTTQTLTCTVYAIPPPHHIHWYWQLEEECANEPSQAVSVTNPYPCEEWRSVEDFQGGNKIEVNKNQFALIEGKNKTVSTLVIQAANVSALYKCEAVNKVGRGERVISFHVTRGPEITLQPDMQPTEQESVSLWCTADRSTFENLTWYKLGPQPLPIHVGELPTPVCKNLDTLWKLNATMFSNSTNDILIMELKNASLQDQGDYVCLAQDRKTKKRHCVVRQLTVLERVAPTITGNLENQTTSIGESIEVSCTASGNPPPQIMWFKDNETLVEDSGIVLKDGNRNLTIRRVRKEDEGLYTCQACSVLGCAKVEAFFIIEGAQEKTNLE
Procedure: as §1, §2

Binder | ELISA reading
B1 | 1.93
B2 | 1.99
B3 | 3.02
B4 | 1.38

These binders were tested against T2, mouse KDR (Flk-1)/Fc (Cat. #443-KD/CF, …) (assay: ELISA, Flk-1 coat 5 ug/mL, antibody 0.01 ug/mL).
Procedure: as §1, §2

Binder | ELISA reading
B1 | 0.802
B2 | 0.753
B3 | 1.58
B4 | 0.846

Each binder was assayed against T3, whole KDR-ECD (Cat. # 676490, …) (assay: ELISA, KDR-ECD coat 5 ug/mL, antibody 0.1 ug/mL).
Procedure: as §1, §2

Binder | ELISA reading
B1 | 0.132
B2 | 0.178
B3 | 0.304
B4 | 0.205

What follows are binders tested against T3, whole KDR-ECD (Cat. # 676490, …) (assay: ELISA, KDR-ECD coat 5 ug/mL, antibody 0.01 ug/mL).
Procedure: as §1, §2

Binder | ELISA reading
B1 | 0.09
B2 | 0.072
B3 | 0.09
B4 | 0.081

What follows are binders tested against T4, soluble KDR Ig4-7 domain (human, UniProt P35968 328-764) (assay: ELISA, KDR Ig4-7 coat (1:1 diln.), antibody 1 ug/mL).
T4 construct: domain: Ig4-7 domain; also called b-KDRIg4-7-myc-his; Ig4-7 domain of KDR; not shown: myc-his tag of the pSecTag construct
T4 sequence (P35968 328-764): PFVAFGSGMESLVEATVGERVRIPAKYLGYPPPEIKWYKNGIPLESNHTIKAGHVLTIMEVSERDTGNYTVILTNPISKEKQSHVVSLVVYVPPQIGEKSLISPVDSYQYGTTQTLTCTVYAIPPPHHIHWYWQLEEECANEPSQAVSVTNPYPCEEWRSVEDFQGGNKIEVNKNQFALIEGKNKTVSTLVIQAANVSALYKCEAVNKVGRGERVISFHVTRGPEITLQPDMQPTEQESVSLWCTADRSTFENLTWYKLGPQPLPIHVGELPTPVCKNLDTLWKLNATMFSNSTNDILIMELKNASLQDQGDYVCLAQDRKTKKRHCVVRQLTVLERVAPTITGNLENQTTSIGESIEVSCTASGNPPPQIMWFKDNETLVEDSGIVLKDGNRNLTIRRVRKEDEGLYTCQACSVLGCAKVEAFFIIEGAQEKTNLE
Procedure: as §1, §2

Binder | ELISA reading
B1 | 0.114
B2 | 3.04
B3 | 3.47
B4 | 0.107

What follows are binders tested against T4, soluble KDR Ig4-7 domain (assay: ELISA, KDR Ig4-7 coat (1:1 diln.), antibody 0.1 ug/mL).
Procedure: as §1, §2

Binder | ELISA reading
B1 | 0.079
B2 | 2.14
B3 | 2.8
B4 | 0.074

What follows are binders tested against T5, cynomolgus KDR (cynomolgus monkey, UniProt A0A2K5VE63 20-1356) (assay: FACS on Cyno KDR/293T transfectants, antibody 5 ug/mL).
T5 construct: whole, on cells; also called Cyno KDR
T5 sequence (A0A2K5VE63 entry or part of it): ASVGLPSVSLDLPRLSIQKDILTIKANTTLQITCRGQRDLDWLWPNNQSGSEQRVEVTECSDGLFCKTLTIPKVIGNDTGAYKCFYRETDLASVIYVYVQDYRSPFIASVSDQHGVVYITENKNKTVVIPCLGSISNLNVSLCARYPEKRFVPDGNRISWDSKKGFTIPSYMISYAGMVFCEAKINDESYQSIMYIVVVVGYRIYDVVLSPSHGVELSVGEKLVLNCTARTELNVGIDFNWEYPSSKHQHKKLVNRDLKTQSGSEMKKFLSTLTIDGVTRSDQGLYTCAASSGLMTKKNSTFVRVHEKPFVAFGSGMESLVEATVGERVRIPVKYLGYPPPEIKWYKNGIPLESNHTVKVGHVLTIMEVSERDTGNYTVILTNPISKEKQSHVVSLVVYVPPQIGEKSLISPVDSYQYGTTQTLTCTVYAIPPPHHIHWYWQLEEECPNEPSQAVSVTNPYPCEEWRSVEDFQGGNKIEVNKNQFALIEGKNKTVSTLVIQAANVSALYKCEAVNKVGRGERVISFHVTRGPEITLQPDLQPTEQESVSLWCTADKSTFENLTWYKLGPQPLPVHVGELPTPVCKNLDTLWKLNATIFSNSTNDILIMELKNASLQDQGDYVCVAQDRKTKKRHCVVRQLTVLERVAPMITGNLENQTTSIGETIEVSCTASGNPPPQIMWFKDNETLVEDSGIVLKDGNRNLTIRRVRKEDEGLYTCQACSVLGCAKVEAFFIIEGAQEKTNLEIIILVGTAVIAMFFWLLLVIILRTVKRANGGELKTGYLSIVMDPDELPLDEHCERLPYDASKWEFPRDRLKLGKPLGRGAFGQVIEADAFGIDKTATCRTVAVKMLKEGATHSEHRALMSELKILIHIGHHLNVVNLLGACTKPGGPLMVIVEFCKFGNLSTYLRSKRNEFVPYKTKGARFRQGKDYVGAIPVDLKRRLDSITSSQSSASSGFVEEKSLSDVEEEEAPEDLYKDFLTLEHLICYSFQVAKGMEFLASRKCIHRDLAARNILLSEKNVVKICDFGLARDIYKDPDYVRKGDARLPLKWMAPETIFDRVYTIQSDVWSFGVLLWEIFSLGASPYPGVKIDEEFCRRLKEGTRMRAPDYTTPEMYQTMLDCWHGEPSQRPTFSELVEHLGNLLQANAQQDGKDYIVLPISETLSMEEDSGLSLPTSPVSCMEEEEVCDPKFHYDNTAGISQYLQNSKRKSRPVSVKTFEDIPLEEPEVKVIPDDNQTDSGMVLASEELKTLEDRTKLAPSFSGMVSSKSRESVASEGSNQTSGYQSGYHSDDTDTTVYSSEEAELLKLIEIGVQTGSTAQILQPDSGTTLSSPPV
Procedure: The binding of purified antibodies to cell-bound cynomolgus KDR (with parental cells as negative control) was tested by FACS analysis in this assay.
Cynomolgus KDR was cloned in 3 pieces. One piece was PCR amplified from cynomolgus lung cDNA, and the remaining two pieces were PCR amplified from cynomolgus kidney cDNA. The three PCR products were inserted into pCR3.1 Bid vector. […] Transfected cells were seeded at 50,000 cells/well and incubated with 5 μg/mL of candidate antibody for one hour at 4° C. The cells were then washed and incubated with secondary antibody (Cy5-conjugated goat anti-human antibody, or Cy5-conjugated rabbit anti-goat antibody, plus 7-Amino-Actinomycin (7AAD)) for 15 minutes at 4° C. Binding between cynomolgus KDR and purified antibody was detected by FACS analysis.

Binder | FACS Geometric Mean Fluorescence
B1 | 105
B2 | 108
B3 | 68.4
B4 | 88.5

These binders were tested against T4, soluble KDR Ig4-7 domain (assay: ELISA, KDR Ig4-7 coat (1:1 diln.), antibody 0.01 ug/mL).
Procedure: as §1, §2

Binder | ELISA reading
B1 | 0.076
B2 | 0.609
B3 | 1.45
B4 | 0.067

Each binder was assayed against T1, human KDR (assay: FACS titration of purified antibody on HUVEC cells (FACS Kd)).
Procedure: The binding affinities of the purified antibodies for endogenously-expressed KDR in HUVEC cells was measured. HUVEC cells were seeded at 150,000 cells/well and incubated with titrations of purified antibody for 4 hours at 4° C. The cells were then washed and incubated with goat anti-human IgG-Fc-Cy5+5 μg/mL 7-Amino-Actinomycin (7AAD) for 30 minutes at 4° C. Bound KDR was detected using FACS analysis.

Binder | Kd [nM]
B1 | 1.8
B2 | 0.2
B3 | 0.8
B4 | 3.8

The binders below were run against T1, human KDR (assay: FACS competition on 293T/human KDR transfectants; antibody 5 ug/mL first, then competitor VEGF165 50 ng/mL; bound VEGF165 detected).
Procedure: (§3) Transfected cells were then seeded at 50,000 cells/well and incubated with 5 μg/mL of candidate antibody for one hour at 4° C. […] After washing, the cells were incubated with Cy5-conjugated rabbit anti-goat antibody plus 7AAD for 15 minutes at 4° C.

Binder | FACS Geometric Mean Fluorescence (bound VEGF165)
B1 | 112
B2 | 81
B3 | 97
B4 | 147

These binders were tested against T1, human KDR (assay: FACS competition on 293T/human KDR transfectants; antibody 5 ug/mL first, then competitor VEGF165 50 ng/mL; inhibition of VEGF binding).
Procedure: as §3

Binder | % Inhibition [%]
B1 | 14
B2 | 40
B3 | 27
B4 | -15
